# Laboratory results as given in patent US7910344B2, “Proteins having tyrosinase activity” (Valtion teknillinen tutkimuskeskus, priority 2005, dated 2011).
# Entries after “also recorded” stand apart in the source; their conditions may differ.
# B1: TYR2: extracellular tyrosinase of Trichoderma reesei encoded by tyr2, SEQ ID NO:4, 571 amino acids, C-terminally processed (protein, listed as Trichoderma reesei)
# chain: MLLSASLSALALATVSLAQGTTHIPVTGVPVSPGAAVPLRQNINDLAKSGPQWDLYVQAMYNMSKMDSHDPYSFFQIAGIHGAPYIEYNKAGAKSGDGWLGYCPHGEDLFISWHRPYVLLFEQALVSVAKGIANSYPPSVRAKYQAAAASLRAPYWDWAADSSVPAVTVPQTLKINVPSGSSTKTVDYTNPLKTYYFPRMSLTGSYGEFTGGGNDHTVRCAASKQSYPATANSNLAARPYKSWILVTDTESGPQYDVLTNSQNFADFASTSGPGINVEQIHNAIHWDGACGSQFLAPDYSGFDPLFFMHHAQVDRMWAFWEAIMPSSPLFTASYKGQSRFNSKSGSTITPDSPLQPFYQANGKFHTSNTVKSIQGMGYSYQGIEYWQKSQAQIKSSVTTIINQLYGPNSGKKRNAPRDFLSDIVTDVENLIKTRYFAKISVNVTEVTVRPAEINVYVGGQKAGSLIVMKLPAEGTVNGGFTIDNPMQSILHGGLRNAVQAFTEDIEVEILSKDGQAIPLETVPSLSIDLEVANVTLPSALDQLPKYGQRSRHRAKAAQRGHRFAVPHIPPL
# modifications: C-terminally processed
# How the values were obtained:
# [1] = system: α-casein; experiment: Cross-linking of model proteins followed by changes in MW on SDS-PAGE
# Description: The cross-linking ability in model proteins of TYR2 was also analyzed by following changes in MW on SDS-PAGE. […] Details are given in examples 8 and 9.
# [2] = Kieffer extensibility test of wheat dough; details: 1 and 10 nkat/g flour, resting 15-45 min, about 22° C.
# Description: The influence of TYR2 on the large deformation rheology of wheat dough was investigated by using Kieffer extensibility rig (Stable Micro Systems, Ltd. United Kingdom). Dough extensibility and resistance to extension were measured as a function of enzyme dosage and dough's resting time.
# Wheat flour was mixed with Farinograph (Brabender, Germany) using 12 g flour and 7.2 ml liquid phase (60%). Tyrosinase (1 and 10 nkat/g flour) was added to water right before mixing with flour. Mixing time was 4 min. Subsequently, dough was placed into a mould to produce approximately 10-12 test strings. The pressed mould was kept at room temperature for 15-45 min to allow stress relaxation. In the Kieffer tests, dough strings were centrally extended until the elastic limit of the string was exceeded and it ruptured. Maximum resistance Rmax, maximum extensibility Emax and extensibility Ex at Rmax were determined by recording the peak force and the distance at the maximum and at the extension limit. All dough preparations, enzyme treatments and measurements were performed at room temperature, approximately at 22° C.
# [3] = Isoelectric focusing; type: physicochemical; details: purified TYR2, Coomassie Blue staining, pH range 3.5-9.5
# Description: The isoelectric point (pI) of the enzyme from culture supernatant and purified enzyme was determined by isoelectric focusing within a pH range of 3.5-9.5 (Ampholine PAGplate 3.5-9.5 for IEF, Amersham Bioscience) on an LKB 2117 Multiphor II Electrophoresis System (LKB Pharmacia, Bromma, Sweden) according to manufacturer's instructions. Bands containing tyrosinase activity were visualized by staining the gel with 15 mM L-Dopa in 0.1 M sodium phosphate buffer (pH 7.0) and proteins by Coomassie Blue staining. […] Under native conditions in isoelectric focusing both the culture filtrate and the purified tyrosinase didn't show a clear band, when stained with L-Dopa, instead the activity was observed as a brown zone at about pH 9.
# [4] = system: caseinate; experiment: Caseinate gel hardness by Texture Analyzer; details: 3% caseinate, 0.4% GDL, 20 nkat/g protein TYR2, 22 hours, room temperature
# Description: 3% of commercial caseinate was mixed in water and 0.4% GDL (glucono-delta-lactone) and 20 nkat/g protein of TYR2 was added to the mixture. It was allowed to rest for 22 hours at room temperature, whereafter the gel hardness was measured by Texture Analyzer (FIG. 6).
# [5] = system: chicken breast myofibrils; experiment: Gel forming of chicken myofibril matrix, storage modulus (G′), Bohlin Rheometer; details: 240 nkat TYR2/g protein, 25, 30 and 40° C., 3 hours, pH 6
# Description: Ability of TYR2 to form cross-links in a chicken myofibril matrix was also investigated as a development of storage modulus (G′) measuring gel forming ability at low deformation. Measurements were carried out during heating at constant temperature using a Bohlin Rheometer. Chicken breast myofibrils were isolated according to Xiong and Brekke (1989) omitting EDTA and NaN3 from the isolation buffer. Isolated myofibrils were suspended in 50 mM Na-phosphate buffer, pH 6, supplemented with 0.30 M NaCl to the protein concentration of 40 mg/ml. Suspensions were treated with 240 nkat of TYR2 per gram of protein at 25° C., 30° C. and 40° C. for 3 hours. Control samples were treated in a similar way but without enzyme.
# [6] = system: salt soluble proteins (SSP) of chicken breast muscle myofibrils; experiment: Cross-linking of chicken myofibril salt soluble proteins followed by SDS-PAGE
# Description: Changes in the molecular weight of the isolated salt soluble proteins (SSP) of chicken breast muscle myofibrils caused by TYR2 were analysed by SDS-PAGE. SPP were isolated according to Xiong and Brekke, 1989. For enzyme treatment SSP was suspended in 50 mM Na-phosphate buffer, pH 7, containing 0.6 M NaCl to the protein concentration of 3 mg/ml. 120 nkat or 240 nkat of TYR2 per gram of protein was added to the suspension. Control suspension was treated in a similar way but without enzyme addition. Reaction mixture was incubated at 30° C. Samples were drawn at the time points of 2 min, 1 hour, 3 hours and 24 hours. SDS-PAGE sample buffer was added and the samples were heated in a boiling water bath. 20 μg of protein from each sample was loaded onto 12% Tris-HCl polyacryl amide gels. SDS-PAGE was performed according to Laemmli, 1970.
# [7] = pH optimum of the tyrosinase by oxygen consumption measurements; type: biochemical; details: 15 mM L-Dopa, 4.3 μg purified tyrosinase
# Description: pH optimum for the tyrosinase was studied by oxygen consumption measurements. Measurements were performed with a single channel oxygen meter (Precision sensing GmbH, Germany) containing fiber-optic oxygen minisensors with measurement range 0-100% oxygen. L-Dopa in 15 mM concentration, dissolved in 0.1 M sodium phosphate buffer, pH 7.0, was used as substrate. Reactions were carried out with 1.8 ml substrate solution and with 4.3 μg of the purified T. reesei tyrosinase. Three different buffers were used according to their buffer capacity. McIlvaine buffer was used within a pH range of 2-7, Tris-HCl buffer (50 mM) within a pH range 7-9 and borate buffer (12.5 mM) within a pH range of 8-9.5. The pH optimum of TYR2 is at 8-8.5. The enzyme has relatively high activity within a quite wide pH range, 5-9. […] In the measurements with Tris-HCl buffer in pH 8, 8.5 and 9.0 also a blank test without enzyme addition was performed to correct the effect of auto-oxidation in results. The pH optimum of the tyrosinase seemed to be dependant on the buffer.
# [8] = Stability of the enzyme at different pH-values (residual activity on L-Dopa); type: physicochemical; details: McIlvaine buffer, room temperature
# Description: The stability of the enzyme at different pH-values was determined in McIlvaine, 50 mM Na2HPO4-25 mM citric acid, buffer by incubating the enzyme solution in different pH-values at room temperature. The residual tyrosinase activity was determined by measuring the activity of the enzyme solutions with L-Dopa as substrate.
molecule,measurement,setting,value
B1,Cross-linking ability (changes in MW on SDS-PAGE),[1],able to cross-link
same,Dough extensibility Ex at Rmax,[2],decreased the dough extensibility Ex at Rmax
same,Maximum resistance Rmax of dough,[2],increased the maximum resistance Rmax of dough
same,Isoelectric point (bands in isoelectric focusing),[3],~9
same,Hardness of caseinate gel,[4],doubled the hardness of the caseinate gel
same,"Storage modulus (G′), gel forming",[5],greater increase in G′
same,Detectable electrophoretic changes of SSP,"[6]; 120 or 240 nkat TYR2/g protein, 30° C., pH 7, up to 24 h",progressive disappearance of the myosin band of ˜200 kDa; also recorded: progressive disappearance of the band of ˜36 kDa; also recorded: appearance of large molecular weight protein products (>200 kDa)
same,Cross-linking ability (changes in MW on SDS-PAGE),[6]; chicken myofibril,able to cross-link
same,pH range of relatively high activity,[7],5-9
same,pH optimum,"[7]; McIlvaine, Tris-HCl, borate buffers",8-8.5
same,pH stability,[8],good stability at neutral and alkaline pH
